Measured values reported in paper PMC6555819, “Comprehensive study of nuclear receptor DNA binding provides a revised framework for understanding receptor specificity”.

Target: LXRb:RXRa (Homo sapiens, UniProt P55055;P19793 full;full)
Assay: no ligand; PBM; 270 nM : 90 nM RXRa; PBS pH 7.4, 2% milk, 0.02% Triton X-100, 1 mM DTT, BSA, 0.4 mg/ml salmon testes DNA
Details: tags: His kept;His cleaved; copies: 1;1; label: surface-attached array probe
Procedure, shortened: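 Custom Agilent 4×180K protein-binding microarrays carried double-stranded probes. Their 34-nt variable regions held direct-repeat seeds, single-nucleotide variants, half-site ablations and random human genomic background sequences. Arrays were incubated 1 h with ligand-free nuclear receptor dimers in PBS pH 7.4, 2% milk, 0.02% Triton X-100, 1 mM DTT, 0.2 mg/mL BSA and 0.4 mg/ml salmon testes DNA. Antibodies against each partner (one per run) detected binding, and scanned fluorescence was regression-normalized. Binding z-scores use random background probes as reference.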

Chain of LXRb:RXRa (P55055 whole entry, chain 1 of 2): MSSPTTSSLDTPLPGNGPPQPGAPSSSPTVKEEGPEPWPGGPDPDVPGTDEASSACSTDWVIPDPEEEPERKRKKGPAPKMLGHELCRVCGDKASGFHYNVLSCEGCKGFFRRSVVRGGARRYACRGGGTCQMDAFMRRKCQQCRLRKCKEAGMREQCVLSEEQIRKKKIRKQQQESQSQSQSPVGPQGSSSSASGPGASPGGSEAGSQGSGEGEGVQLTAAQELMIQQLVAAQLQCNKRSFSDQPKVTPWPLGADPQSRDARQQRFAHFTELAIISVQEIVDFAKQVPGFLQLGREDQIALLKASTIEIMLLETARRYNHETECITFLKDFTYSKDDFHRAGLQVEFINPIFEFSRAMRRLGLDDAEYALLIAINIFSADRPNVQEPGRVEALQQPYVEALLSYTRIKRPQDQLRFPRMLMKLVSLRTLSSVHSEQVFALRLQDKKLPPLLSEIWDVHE
Chain of LXRb:RXRa (P19793 whole entry, chain 2 of 2): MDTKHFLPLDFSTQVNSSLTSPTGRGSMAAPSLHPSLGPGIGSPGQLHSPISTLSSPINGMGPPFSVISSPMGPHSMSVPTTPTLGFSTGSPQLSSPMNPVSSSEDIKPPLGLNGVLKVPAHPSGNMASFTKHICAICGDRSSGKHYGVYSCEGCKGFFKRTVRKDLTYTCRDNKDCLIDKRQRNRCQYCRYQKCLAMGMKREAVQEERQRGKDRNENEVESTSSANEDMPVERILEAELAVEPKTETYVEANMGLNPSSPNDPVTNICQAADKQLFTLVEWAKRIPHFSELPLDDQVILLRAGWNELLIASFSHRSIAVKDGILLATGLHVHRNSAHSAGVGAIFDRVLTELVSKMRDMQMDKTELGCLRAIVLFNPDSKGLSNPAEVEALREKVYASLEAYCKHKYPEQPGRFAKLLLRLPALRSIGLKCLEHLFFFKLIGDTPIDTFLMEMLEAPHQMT

B1: NRC3_wobSeed27_DR1_A9G_o1 (dsDNA)
DNA 1: GCACTCGGGGGACAAAGGTCAGAGCTACGCCAGTGAGCGATTGACAGCGTAGAATGAAGG
DNA 2: CCTTCATTCTACGCTGTCAATCGCTCACTGGCGTAGCTCTGACCTTTGTCCCCCGAGTGC
For B1, the binding signal was 5.84 PBM z-score against 500 random probes.

B2: NRC3_wobSeed98_DR4_C29A_o1 (dsDNA)
DNA 1: GCACTAGTTGGTCAGCTGAGGTCACACAAAATTCGGGCGATTGACAGCGTAGAATGAAGG
DNA 2: CCTTCATTCTACGCTGTCAATCGCCCGAATTTTGTGTGACCTCAGCTGACCAACTAGTGC
In the case of B2, the binding signal is reported as 3.75 PBM z-score against 500 random probes.

B3: NRC3_wobSeed92_DR3_A9G_o1 (dsDNA)
DNA 1: GCAGAATGGGGTTATTAAGATCAGGGAATTGCGGTCGCGATTGACAGCGTAGAATGAAGG
DNA 2: CCTTCATTCTACGCTGTCAATCGCGACCGCAATTCCCTGATCTTAATAACCCCATTCTGC
With B3 the binding signal was 3.86 PBM z-score against 500 random probes.

B4: NRC3_wobSeed2_DR0_C4A_o1 (dsDNA)
DNA 1: GCCATAGTTGGTCAAGGTCACACACGCTATAGGTACGCGATTGACAGCGTAGAATGAAGG
DNA 2: CCTTCATTCTACGCTGTCAATCGCGTACCTATAGCGTGTGTGACCTTGACCAACTATGGC
With B4 the binding signal was 3.81 PBM z-score against 500 random probes.

B5: NRC3_wobSeed113_DR4_T17G_o1 (dsDNA)
DNA 1: GCATATGTAGGTTAGCGGGGGTCATTCAGACTAGGCGCGATTGACAGCGTAGAATGAAGG
DNA 2: CCTTCATTCTACGCTGTCAATCGCGCCTAGTCTGAATGACCCCCGCTAACCTACATATGC
B5 was tested, and the binding signal was 6.23 PBM z-score against 500 random probes.

B6: NRC3_wobSeed72_DR2_A6T_o1 (dsDNA)
DNA 1: GCTCGTGTAGGTTACGGGGGCATTCAGGGATGAAGAGCGATTGACAGCGTAGAATGAAGG
DNA 2: CCTTCATTCTACGCTGTCAATCGCTCTTCATCCCTGAATGCCCCCGTAACCTACACGAGC
For B6, the binding signal was 6.12 PBM z-score against 500 random probes.

B7: NRC3_wobSeed124_DR5_C17A_o1 (dsDNA)
DNA 1: GCCCTACTGGGCCATTAAGAGGTCATTGATCATATGGCGATTGACAGCGTAGAATGAAGG
DNA 2: CCTTCATTCTACGCTGTCAATCGCCATATGATCAATGACCTCTTAATGGCCCAGTAGGGC
For B7, the binding signal was 3.9 PBM z-score against 500 random probes.

B8: NRC3_wobSeed124_DR5_T15C_o1 (dsDNA)
DNA 1: GCCCTACTGGGCCACTCAGAGGTCATTGATCATATGGCGATTGACAGCGTAGAATGAAGG
DNA 2: CCTTCATTCTACGCTGTCAATCGCCATATGATCAATGACCTCTGAGTGGCCCAGTAGGGC
In the case of B8, the binding signal is reported as 3.89 PBM z-score against 500 random probes.

B9: NRC3_wobSeed124_DR5_T27C_o1 (dsDNA)
DNA 1: GCCCTACTGGGCCATTCAGAGGTCATCGATCATATGGCGATTGACAGCGTAGAATGAAGG
DNA 2: CCTTCATTCTACGCTGTCAATCGCCATATGATCGATGACCTCTGAATGGCCCAGTAGGGC
With B9 the binding signal was 3.78 PBM z-score against 500 random probes.

B10: NRC3_wobSeed26_DR1_C22A_o1 (dsDNA)
DNA 1: GCTCTAGTTGGTCAAAGGTCAAACACTCGAAATGCGGCGATTGACAGCGTAGAATGAAGG
DNA 2: CCTTCATTCTACGCTGTCAATCGCCGCATTTCGAGTGTTTGACCTTTGACCAACTAGAGC
With B10 the binding signal was 6.26 PBM z-score against 500 random probes.

B11: NRC3_wobSeed49_DR2_C7A_o1 (dsDNA)
DNA 1: GCCAAAATAGGTCAAGAGGTCAAAGTCCGCTTCCCGGCGATTGACAGCGTAGAATGAAGG
DNA 2: CCTTCATTCTACGCTGTCAATCGCCGGGAAGCGGACTTTGACCTCTTGACCTATTTTGGC
B11 was tested, and the binding signal was 6.19 PBM z-score against 500 random probes.

B12: NRC3_wobSeed50_DR2_A17G_o1 (dsDNA)
DNA 1: GCCCTAGTTGGTCAGGGGGTCACACACCGGATATGAGCGATTGACAGCGTAGAATGAAGG
DNA 2: CCTTCATTCTACGCTGTCAATCGCTCATATCCGGTGTGTGACCCCCTGACCAACTAGGGC
With B12 the binding signal was 6.04 PBM z-score against 500 random probes.

B13: NRC3_wobSeed50_DR2_T9G_o1 (dsDNA)
DNA 1: GCCCTAGTGGGTCAGGAGGTCACACACCGGATATGAGCGATTGACAGCGTAGAATGAAGG
DNA 2: CCTTCATTCTACGCTGTCAATCGCTCATATCCGGTGTGTGACCTCCTGACCCACTAGGGC
In the case of B13, the binding signal is reported as 3.76 PBM z-score against 500 random probes.
